Source: paper PMC3217979, “Thermostable Hexameric Form of Eis (Rv2416c) Protein of M. tuberculosis Plays an Important Role for Enhanced Intracellular Survival within Macrophages” (PLoS ONE, 2011)

Assays:
[1] = molecular target: the molecule itself; assay: SEC; […], pH 8.0, 25°C; […]
[2] = molecular target: the molecule itself; assay: SDS-PAGE of unboiled and boiled samples; 10 µg Eis in 1% SDS, 0.125 M Tris pH 6.8, boiled or unboiled; 10% acrylamide gel, 0.1% SDS in Tris/Glycine pH 8.0; Coomassie stain

B1: Eis protein (Rv2416c) of M. tuberculosis (enzyme)
chain: MTVTLCSPTEDDWPGMFLLAAASFTDFIGPESATAWRTLVPTDGAVVVRDGAGPGSEVVGMALYMDLRLTVPGEVVLPTAGLSFVAVAPTHRRRGLLRAMCAELHRRIADSGYPVAALHASEGGIYGRFGYGPATTLHELTVDRRFARFHADAPGGGLGGSSVRLVRPTEHRGEFEAIYERWRQQVPGGLLRPQVLWDELLAECKAAPGGDRESFALLHPDGYALYRVDRTDLKLARVSELRAVTADAHCALWRALIGLDSMERISIITHPQDPLPHLLTDTRLARTTWRQDGLWLRIMNVPAALEARGYAHEVGEFSTVLEVSDGGRFALKIGDGRARCTPTDAAAEIEMDRDVLGSLYLGAHRASTLAAANRLRTKDSQLLRRLDAAFASDVPVQTAFEF
notes: also called aminoglycoside acetyltransferase Eis; recombinant Eis protein
[1]
  stoichiometry N: 6
[2]
  stoichiometry N: 3
